Results taken from PMC8002179.

How the values were obtained:
[1] = biological target: wild type ACKR3 fused with Renilla luciferase (RLuc) on the C-terminal tail (human) (UniProt P25106)
[2] = biological target: β-arrestin1 tagged with the eYFP fluorescent protein (UniProt P49407); test: BRET; settings: CXCL12 (100 nM), HEK293T cells, read at last time point (~56 min), read off a plot
[3] = biological target: β-arrestin2 tagged with the mVenus fluorescent protein (UniProt P32121); test: BRET; settings: CXCL12 (100 nM), HEK293T cells, read off a plot

CXCL12, sequence (P48061 22-93): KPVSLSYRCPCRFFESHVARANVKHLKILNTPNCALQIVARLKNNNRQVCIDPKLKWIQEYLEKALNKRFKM
UniProt P25106, sequence (P25106 whole entry, the tested form may be a part): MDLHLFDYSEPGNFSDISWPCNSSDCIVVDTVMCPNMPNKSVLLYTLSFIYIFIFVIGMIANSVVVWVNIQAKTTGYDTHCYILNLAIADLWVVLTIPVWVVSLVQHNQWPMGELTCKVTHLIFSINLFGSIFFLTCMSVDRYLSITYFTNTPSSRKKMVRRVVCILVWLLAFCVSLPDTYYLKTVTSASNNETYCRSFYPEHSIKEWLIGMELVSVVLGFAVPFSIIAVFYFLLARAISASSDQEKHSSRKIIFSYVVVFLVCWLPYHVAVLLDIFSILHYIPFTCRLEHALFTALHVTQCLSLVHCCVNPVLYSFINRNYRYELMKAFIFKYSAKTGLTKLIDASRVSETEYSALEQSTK

## CXCL12 (from UniProt P48061 22-93) (ligand)
[1]
  pEC50 of CXCL12 for ACKR3-RLuc translocation to Rab5a-mVenus (early endosome sensor, BRET, HEK293T): 9.1 pEC50
  pEC50 of CXCL12 for ACKR3-RLuc translocation to Rab11-mVenus (recycling endosome sensor, BRET, HEK293T): 9.1 pEC50
  pEC50 of CXCL12 for GRK2-mVenus recruitment to ACKR3-RLuc (BRET, HEK293T): 8.2 pEC50
  pEC50 of CXCL12 for GRK3-mVenus recruitment to ACKR3-RLuc (BRET, HEK293T): 8.1 pEC50
  pEC50 of CXCL12 for GRK5-mVenus recruitment to ACKR3-RLuc (BRET, HEK293T): 8.3 pEC50
  pEC50 of CXCL12 for loss of ACKR3-RLuc co-localization with K-Ras-mVenus (cell membrane sensor, BRET, HEK293T): 8.9 pEC50
  pEC50 of CXCL12 for β-arrestin1-eYFP recruitment to ACKR3-RLuc (BRET, HEK293T): 8.1 pEC50
  pEC50 of CXCL12 for β-arrestin2-mVenus recruitment to ACKR3-RLuc (BRET, HEK293T): 8.2 pEC50

## wild type ACKR3 fused with Renilla luciferase (RLuc) on the C-terminal tail (from UniProt P25106) ST/A 350.355
[2]; parent: est. 1.09
  response: 1.01 fold vehicle
[3]; read at last time point (~56 min), parent: est. 1.17
  response: 1.14 fold vehicle

## wild type ACKR3 fused with Renilla luciferase (RLuc) on the C-terminal tail (from UniProt P25106) full ST/A
[2]; parent: est. 1.11
  response: 1 fold vehicle
[3]; read at last time point (~33 min), parent: est. 1.13
  response: 1.02 fold vehicle
